Experimental data taken from paper PMC6262395, “A Rhodococcal Transcriptional Regulatory Mechanism Detects the Common Lactone Ring of AHL Quorum-Sensing Signals and Triggers the Quorum-Quenching Response” (Frontiers in Microbiology, 2018).

Tests used:
QsdR = biological target: T1, QsdR (Rhodococcus erythropolis, UniProt A0A0C2W9F0); experiment: EMSA, release of QsdR from biotin-labelled qsdR-qsdA intergenic DNA; conditions: ligand/QsdR molecule ratio 0.1 to 100; 2 μg His-tagged QsdR, 0.4 ng DNA; effector that relieves DNA binding
T1 construct: gene I3517_23075; full-length qsdR ORF in pET19, His-tagged (tag kept), expressed in E. coli BL21(DE3), Ni-NTA; 186 residues, asymmetric dimer
T1 sequence (A0A0C2W9F0 1-186): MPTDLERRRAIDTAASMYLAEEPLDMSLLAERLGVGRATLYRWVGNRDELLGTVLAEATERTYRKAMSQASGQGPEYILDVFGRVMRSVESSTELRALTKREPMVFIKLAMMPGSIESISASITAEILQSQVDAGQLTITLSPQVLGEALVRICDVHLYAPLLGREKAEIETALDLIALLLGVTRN

[1] = biological target: T2, QsdR (TetR-family repressor) (Rhodococcus erythropolis R138) (UniProt A0A0C2W9F0); experiment: EMSA; conditions: LightShift Chemiluminescent EMSA Kit (Thermo Scientific) as per manufacturer, 20 ul reaction; buffer, salt, pH and temperature not stated
T2 sequence: T1 sequence (A0A0C2W9F0 1-186)

[2] = biological target: T2, QsdR (TetR-family repressor) (Rhodococcus erythropolis R138); experiment: competition; conditions: LightShift Chemiluminescent EMSA Kit (Thermo Scientific) as per manufacturer, 20 ul reaction; buffer, salt, pH and temperature not stated

| Molecule | binding [1] | also measured |
| --- | --- | --- |
| N[C@H]1CCOC1=O [HSL, homoserine lactone] | – | EMSA, release of QsdR from biotin-labelled qsdR-qsdA intergenic DNA (QsdR): Addition of increased amounts of HSL induced a proportional increase in free DNA |
| CATTCCTCAAGTGCGCCATCGAAGAACCTGGTCTGACTCCCGGTGTCGAGCGTGTGATGCGAGCGGTCGGTCAGGCGCAGGTCGAAACCGGGGTACCGATCACGGTTCACACGAACCCGCACACGGAATCGGGCCTCGTTGCGCAGAAGGTTCTGGCCGAGGAAGGTGCAGATCTGA (double strand) [qsdA internal fragment (negative control)] | no binding | – |
| GGTAGGCATCGGGACATTCTCTCCGGTTGTCCGGTACTGCACAATTTCGGCGGTCGAACAGAGGTGGGCTTCGGGTGGCTCGAGCCTATTGACGAACCAAGCGACGTGAGACACACTAGCTCATTGTCTCATGTTAGTGATGGCGATCACAGTCAGGGGTTCGATCGATGAG (double strand) | binds | – |
| GGTAGGCATCGGGACATTCTCTCCGGTTGTCCGGTACTGCACAATTTCGGCGGTCGAACAGAGGTGGGCTTCGGGTGGCTCGAGCCTATTGACGAACCAAGCGACGTGAGACACACTAGCTCATTGTCTCATGTTAGTGATGGCGATCACAGTCAGGGGTTCGATCGATGAG (double strand) [unlabeled qsdR-qsdA intergenic competitor] | – | binding [2]: binds |
